Results on 20 sequences are retold here after a protein production outcome set (Wang et al. 2014).

The series is described as follows: label from the status in PepcDB records.
“MVKGLVVAGALLMASGCQMLQSMMPAGDEEMPRVREGTLAALPATETRQVQGIEAGSGPTDDVSIETVMESYKALLPLVDDPRKQVTIRHRLADLEFQRAERKMADTAVDELAGAIEAYQRLLSEYPEREGNDKIYYQLARAWELRGATPQQLDTLDTLVRRYPDSDYWIEAQFRRGDLLFIDGRYREAEQAFDEVTLASQERMADASFLVNAHYMKGWSLFKQAQYQEALFSYVEVLDLVMPEGQPVEDVDQRSQTLIEDLFRVVGLSLSYLDGAETLQALFRQTGGRPYEILVYDRYSELLVEREQYGDAIDVFEAYIEDHPASPWAPRYHIRIIDTLELAGFTRTVPERKADFVSLYGIYSDYWQSAGPDAMGFIEQQLEQLLPELADRQYLLAGESSDQQQADDHYRKAASYYAEFAATFPDHPRTPERLFLLGETYLELEDWAEAIAAFERVAYDYPQDTVSGRAAEAGYASVLAFREYSITWNSLPISEQAAYQELQQLNRLRFANAFPEDPRAPAVYYIALQHEFDRNNWEETVNMAARLVTWQPTPSAELTTEALLLSGHSLSELARYSEAEQAYRDALATMAEDDERRSGVRENLAAAVYRQAEQLADAGNVEAAVGEFLRVGTVVPESALRANAEYDAASLLITANLWEQAIGVLTSFRQAFPDHELIDTVPAKLALAYRETAQWERAADELQQMVALATTPEERRENLLIAAELYDQAGNRDKAIDTWRNYANSHPEPADVYMEAANRLAELYQEADDTVKRDYWLRKQMETVDRNPDAADDRMRYLAASASATLAREALARYDSIRLTLPLNESMTAKTDALERAVNAYKKTASYGLSSFATEAGYQIAHIYGRLGADLMDSERPTGLSELELAQYELLLEEQAYPFEDNAIDIHEQNIRRAREGIFDEWVKRSYEALKVLLPGRYRKEEVTSGVVYELD”: the protein production result is “failed”.
To “MKVVILGSGSYSGTPKPLCNCENCSIARRNPAFRRTRFSLYIEEGKILVDPSPDLHYHLERLNKKVENVFITHAHFDHIFGVPDLQVYKKLIISSNTLGIKVAKELSRLAFGSEVPSGYEWRYEELQFWNEYSFDNFRVIHFPVIHSLEIAGGYLFEIKGRRIGVTGDTGPEILKDEKVKKLLEGVDILIVEMTKRESIPGVHLGVSDSIEFAKVVGASYTVFAHISHTNYSHEVLEKRVRESGVQGEVARDFTIIEVLEHHHHHH” belongs “failed”.
To “MKSWPRPCSWACANPETKGRAYRTMSSSPTISPASDTFAAMTDDHRLAEFIREQASATRVVIQARKRLSGGAIQENWLLDLLIEGGPWAGVRRWVLRSDALSALPASLDREQEFAVLQVVYQAGVKVPRPLWLCRDVRVHGRVFFLMEYVPGSAAGRALSTGAGPQGRAQLATQLGANLARLHQVRPPCATLCFLSVPDSSPALATIDAYRRYLDTLADAYPVLEWGLRWCELHAPRSSTLCLLHRDYRTGNYLASEEGLEAVLDWEFTGWGDPCEDLGWFTARCWRFTRPDLEAGGIGQLEDFLRGYHEVSSLCIERSRLHYWQVMATLRWAVIALQQGQRHLSGEEPSLELALTARLLPELELDILHMTGAEAP” belongs “failed”; to “MSMLKKTKEFFGLAPYEAEHEDAYYADEPRYEGTAAYAPEYRERDYGYAPEAPAPVAPSPAPRSYQSTIVPVELHSFEDAQVIGGAFRDGDAVVFDMSLLSREEARRIVDFAAGLCFALRGKMQKIDSVTFAVVPELSNISTSELERAARIRLEHHHHHH”, “not failed”.
To “MAIGSLSSLGLGSKVLNYDVIDKLKDADEKALIAPLDKKMEQNVEKQKALVEIKTLLSALKGPVKTLSDYSTYISRKSNVTGDALSASVGVGVPIQDIKVDVQNLAQGDI” belongs “failed”; to “QLPSYRFNPNNHQSEQTLCVVCMCDFESRQLLRVLPCNHEFHAKCVDKWLKANRTCPICRAD”, “not failed”.
“MDKLDANVSSEEGFGSVEKVVLLTFLSTVILMAILGNLLVMVAVCWDRQLRKIKTNYFIVSLAFADLLVSVLVMPFGAIELVQDIWIYGEVFCLVRTSLDVLLTTASIFHLCCISLDRYYAICCQPLVYRNKMTPLRIALMLGGCWVIPTFISFLPIMQGWNNIGIIDLIEKRKFNQNSNSTYCVFMVNKPYAITCSVVAFYIPFLLMVLAYYRIYVTAKEHAHQIQMLQRAGASSESRPQSADQHSTHRMRTETKAAKTLCIIMGCFCLCWAPFFVTNIVDPFIDYTVPGQVWTAFLWLGYINSGLNPFLYAFLNKSFRRAFLIILCCDDERYRRPSILGQTVPCSTTTINGSTHVLSGCSPVSSFLLLFCNRPVPV”: the protein production entry was “failed”.
As to “MVTYSTFIVIAIYLILTILISWFVNQRSIGNTDFSTGGRQFGWFTAGVSILATYISAMTFIGMPGWVYQSGMEALNIHLNYPIVIFFAVVFFIPVFYRMGFTSIYEYLEHRFGVYARTINSVVFILVQCISSGVILYAIALILIQILPISIVEAIVYITLFTACYTYAGGISTVIWTDMLQSAVLIAGSVAIFVLLLLQVDGVHGVSREQLNIINLQFDLGVDTTLWAGVVAVSFLHMSVYGTNQLIIQRTLATRCEKTAQKSMLLCGYGAFFIYFFFALLGVLLSIFYQERHFTNSNEVILDFVFHHTNPWVIGLIISALAAAAMSTLDSTYNSMATVATFDLYQRFIRRNAPDHHYQAVARKMSLVAAGLVVIPALLAVSNESVLKTIASLTSIFVGIRLGSFVLGLFSNQANEKGVIAGSIISIAAVLGARLMDIAWPWFAPIGTVFFLVSGVVISRYWGDNSIQQQAFIARQKHLFATPTMSQYGLLVFAAVTIAVCAIIPDWLYNALS”, the protein production result was “failed”.
For “MKQIRLLAQYYVDLMMKLGLVRFSMLLALALVVLAIVVQMAVTMVLHGQVESIDVIRSIFFGLLITPWAVYFLSVVVEQLEESRQRLSRLVQKLEEMRERDLSLNVQLKDNIAQL”, the protein production entry is given as “not failed”.
To “MKTFEVMIQTDSKGYLDAKFGGNAPKAFLNSNGLPTYSPKISWQKVEGAQSYALELIDHDAQKVCGMPFVHWVVGNIAHNVLEENASMMDKRIVQGVNSLTQGFIRSPLNESEKQRSNLNNSVYIGPMPPNGDHHYLIQVYALDIPKLALKAPFFLGDLHDKMRNHIIAIGRKEFLYKQFVRK” belongs “not failed”.
For “MEMYFKRMKDEWTGLVEQADPPIRAKAAEIAVAHAHYLSIEFYRIVRIDPHAEEFLSNEQVERQLKSAMERWIINVLSAQVDDVERLIQIQHTVAEVHARIGIPVEIVEMGFRVLKKILYPVIFSSDYSAAEKLQVYHFSINSIDIAMEVMTRAFTFSDSSASKELEHHHHHH”, the protein production result is recorded as “not failed”.
In the case of “MGERIALATREGAPLAAYHAPPLEARRGGIVMLHAIWGVTPHLRQLSDSLAEQGYEVMLPSLMDAADAAFPVEDTTPSILDARMAMGERTGWGASTLPRVQACIDALNGPVYAMGFCYGGTTAWLAACRCEGLSAVSAFYGGDIAAYRDETPKVPTILHFGKTDTMIPLSAVDAVRDRHPDLPVYLYDAGHAFVAPSGHHPDSARLALLRTLQLFQR”, the protein production result was “failed”.
“DKITFKGDGDQSDPDGEPGDVVIVIQQKDHDIFKRDGDDLHMTKKLSLNEALCGYNFLIKHLDGHPLVLSSKQGDVIKPGVIRGVLGKGMPNKKYPELKGNLFVEFEVEFPKEHFLDDEKAYAVLK”: the protein production result is recorded as “not failed”.
Consider “MQPISILFLGIDDNDGRRKKGQDAEHSRSDAMILTTFNQSKHQIRMLSIPRDTISYIPKVGYYDKITHAHAYGGPIAAMDSVEATMNVPVDYYVRVNMKAFVEAVNELGGIYYDVPYDLNEPNTDDTGKIKIKKGYQKLNGDEALAVARTRHHDSDLKRGQRQMELIKILFQKAQEVDSIDKLDNVIQIVGKNAKHNLTNSEIKALAKMYLTNDVEIKTAQLKGKDDMLNGIYYYHPSVESIQKYANLLRKDLELSPINDKNDFLDQRVINHYGSLIPLTPLDSSLLRLEHHHHHH”, for which the protein production entry is on record as “not failed”.
For “MAPLDSKSAGGEPGVWKSGRGRGRRLPKGRVYSDEALAAVRGVLGDRPRRRDLLIEFLHLIQDVYGHLSADHLAALAFEMKLGQAEVYETATFYAHFDVVKEGETPPPALTIRVCDSLSCALAGAEQLRAALEEGLDPGQVRVLRAPCMGRCDTAPVLELGHNHIDHATPEKVRAAIAAGDTHAHLPDYEGFDAYAAAGGYAVLKGLRAGGDWEAVQDSVLAAGLRGLGGAGFPSGRKWGFVRANPGPRYLAVNGDEGEPGTFKDRYYLERVPHLFLEGMLIAAWAVEAETCYIYMRDEYPAVLEILRREIAALEAAGIVAKGYIDLRRGAGAYICGEESAMIESIEGKRGLPRHRPPFVAQVGLFGRPTLVHNIETLHWVARVCREGPEVLNSIEKNGRKGLRSYSVSGRVARPGVHLLPAGSTIRDVIAAAGGMAAGHVFKAYQPGGPSSGLLPASMDDIPLDFDTLQPHGSFIGSAAVVVLSQQDSARDAALNMLRFFEDESCGQCTPCRAGCEKAVKLMQAEHWDQPLLEELCQVMADASICGLGQAAPNPIRLTMKHFAEEI”, the protein production entry is given as “failed”.
Turning to “MQGQWGYVAISFIIGIAIAFSSSVIWLTCCLVLNVFFCLYRTPRKTFFYCMIACLSGAMYTTYVQGQNNPLGDSYEATRGVIHNTPLINGDRLSFQVEDQNKNIVQLSYKMKSALEKKQMRQLHAGVSCVFEGERKEPQIARNFHGFNYRDYLYKQNIHFILDATYISECHKTSLSLVQWILLLRQQAISEVAEMFPEQSGAFMNALVFGDRQQMTFEVEEQYQQFGLVHLLAISGSHIVLLMVIVYFILLRSGVTREVATVCLIFCIPLYMILAGASPSVIRASITGVFMLIAFMCSIRLSSLDALSITAICMLIFDPYLVFNIGFQFSFVGSFALLLSTPLLLESGNGVIRNSIYISFISQLVSTPILLYHFGYFSPYSIFLNILYVPFLSLVVLSCSIVILICIPVIPFLAKRLANVLSIGLNLSNDFLSYCENLPFTRLNFGQTSILLVALYCVSIISILMVWERRMAKGILFISAGVFLFISTCHYVYPYFRESGSVTFLDVGQGDAILIRLPYDQEIYLIDTGGTILPNKEEWQRKKHEFSVGNDILIPYLQKEGIKKIDKLIITHGDADHIGAAQQLLSNITVKEVVFGRKEQDAELEKIVKKQALEKKVKIREVREGESWSINGAEFFVLAPTGKESSENNASIVMLAKLGGLTWLFTGDLEEEGEKFLVATYPELRADVLKVAHHGSNTSSTTPFLSVVQPNIAVISVGERNRYGHPHKDVIERFEKRGIEIWRTDKQGAISYVFKGENGTFRSKITYDETHNR”, the protein production entry is listed as “failed”.
For the sequence “SLGDQKPATIYAPTVRVTPNPAWPQVSWQLLVAKPSAARIIDSPRINVRPTPGELQVYHGAGWAQPATDMLEDSVVRAFEDSGKIAAVARIGAGIRSDYKLAIDVRRFESDYAGQSLPAATIELNAKLLHSSDQRVVASRTFTVARPSSSTDTAAVAAAFEQALTQVTTELVGWTLITGQQDSQTLPRAL”, the protein production result is on record as “not failed”.
The result for “MHISFIIPAFNEEQLIEPCLRSITDAVAANRSYGYTSEIIVVDNNSTDATAQLAKQAGAQVVFEPVNHIARARTAGAGAARGDWLVFMDADCLLNAGLVGDIFELIRQGRHIGAGSTLYMPGQPWWAEMLLRIWTFLSVQLGWAAGALIVCNAAAFREVGGFDLTLYAAEEIDLSQKLKKYGRKRKLKFAILNAHPLETSSRKTQLYSGWEIVGQFLRLVLSPLGTLRNKKKLPMWYDGRRLEHHHHHH” reads “not failed”; that for “MGLFFAQNMMYNHTITVYDRNYELVKVIPDEVDLSKYGHSRFKGKYRGAPVEASFSHNGKYAWISNYQMYGPGFNNPGSDKCHPSQKTDKSFLYRINTETLKIDRVIPVGSVPKFVATSTDENLILVSNWCSWDLSVVDINQNQEIKRIKLGPYPRGIVVDPASETAYVAVMGSYNIAKVNLRDFSVQWLRNIGSSPRHLNIDPAGKYLYASLNGEGKIAKISLPQGNLVKKIATGNAPRSMVLSANGQTLYVVNYGEDTVSKVRTSDMKVLQKVKVEPDPIGITYDPQTREVWVACYSGNIMIFQDLEHHHHHH”, “not failed”; that for “TFEEDDNMERAAVTGIAFDKNQARINVRGVPDKPGVAYQILGAVADANIEVDMIIQNVGSEGTTDFSFTVPRGDYKQTLEILSERQDSIGAASIDGDDTVCKVSAVGLGMRSHVGVAAKIFRTLAEEGINIQMISTSEIKVSVLIDEKYMELATRVLHKAFNLG”, “not failed”.
